In patent US20240343781A1 (TRUSTEES OF COLUMBIA UNIVERSITY IN THE CITY OF NEW YORK, published 2024):

B1: engineered monoclonal antibody 10-40 (antibody, V domains shown)
VH: QLQLQESGPGLVKPSETLSLTCTVSGGSISSSNFYWGWIRQPPGKGLEWIASITYSGRTFYNPSLKSRVAISVDTSKNQFSLKLSSVTAADTAVYYCARTFPSYYDRSGYHYLNYGMDVWGQGTTVTVSS
VL: NFMLTQPHSMSESPGKTVTISCTRSSGSIASNYVQWYQQRPGSSPTTVIYEDNQRPSGVPDRFSGSIDSSSNSASLTISGLKTEDEADYYCQSYDSSSWVFGGGTKLTVL
B2: engineered monoclonal antibody 11-11 (antibody, V domains shown)
VH: QVQLQESGPGLVKPSQTLSLTCTVSGGSISSGGYYWSWIRQHPGKGLEWIGYIYYSGSTYYNPSLKSRVTISVDTSKNQFSLKVSSVTAADTAVYYCASSNYYDGSGYNLLESYGMDVWGQGTSVTVSS
VL: QSVLTQPPSVSGAPGQRVTISCTGSSSNIGAGYDVHWYQQLPGTAPKLLIYGNSNRPSGVPDRFSGSRSGTSASLAITGLQAEDEADYYCQSYDSSLSGSWVFGGGTKVTVL

Biological target: SARS-COV spike on pseudovirus (SARS-CoV, UniProt P59594 14-1255)
Assay: cell-based or functional assay

Binder	IC50, neutralization of pseudoviruses
B1	0.019 µg/mL
B2	0.025 µg/mL
